Experimental data from the DeepSol protein solubility set.

test: soluble on expression in E. coli; label from the status in PepcDB or PDB records

Sequence	soluble on expression in E. coli
GASSLKDEVPTETSEDFGFKFLGQKQILPSFNEKLPFASLQNLDISNSKSLFVAASGSKAVVGELQLLRDHITSDSTPLTFKWEKEIPDVIFVCFHGDQVLVSTRNALYSLDLEELSEFRTVTSFEKPVFQLKNVNNTLVILNSVNDLSALDLRTKSTKQLAQNVTSFDVTNSQLAVLLKDRSFQSFAWRNGEMEKQFEFSLPSELEELPVEEYSPLSVTILSPQDFLAVFGNVISETDDEVSYDQKMYIIKHIDGSASFQETFDITPPFGQIVRFPYMYKVTLSGLIEPDANVNVLASSCSSEVSIWDSKQVIEPSQDSERAVLPISEETDKDTNPIGVAVDVVTSGTILEPCSGVDTIERLPLVYILNNEGSLQIVGLFHVAAIKS	soluble
MGSDKIHHHHHHMEDLNSLYYFTQVVEHGGFAPAGRALDMPKSKLSRRIADLEDRLGVRLLNRTSRHCSLTEIGQAYYNRCLAMRVEAEGAAEIIERNRSEPRGLVRISCPTTLLNSWVGPMLTRYMLKYPQVELFIESTNRRVDLLHEGFDIALRVRFPPLENTDMVMKVLSNSTQCLVGQPQYLAQLPKGFDPQLLGTLPSVHWGSAQREYQWELFQGEDNSRSIVIPHTPRMVTDDLFALRHFVVAGVGIAHLPRVAVREDLAAGRLVELIPDWHPRCGIVHAIFPSRRGLLPSVRALIDHLAEEFAISDMA	not soluble
MSLAAPNAASGVLKLYRAYREQAQRLSDLSDLLAREGHETALSSTRLPIDEVRHVFENRPAYFHAIDAAAEELHKQLSTGDDLASGLRAWLQKNHGIVVRTLPVHAMPNLRRRYDRHSMRLFLSERLSQPDQLREMAMETCLLALREEIGTELEALGLKGEEARRIARFELARYAAHALMMPYGAFLAAAQRAKYDLDVLRSRFNVSFEQAANRLVSLQRPTTAAIPFFLMEIDNAGNRFRLAGAGGFPRARFGGLCPRLNIHAAFAQPGQVLVESVEMPDGDAFLTVSRTLEGEGHHHHHH	not soluble
GPGSMETTTHVVNPGEEGAYSSITEAINAAVDGDTVLLKPGLYEELPKVFKDITVTAERDASLTESETIVTNGIVIGSNATLKGLQVRGRVDVRKGHAVIEECDIHHGCDGIRVGEAAKLTVRRSRIHHCESGGDGIYFSTGSMGEVEDCDIYECRVNGVHANNARVVIARNRVRDVLFGFYFRGQSSGSVERNSVEHVSKFGIYVTEGSDPVVQGNMVRECGMHCAFVSQGGKGIWVDNSFDGSMHVHSGCDAKLGSNHVVGRLDVDPPT	not soluble
RHNLIQRKRELDKQNELYRAIISASFAFVFQIDTEARFSFVSPSVEDFTGYRPDMLNGEPISILGSDEQAIKEARDYLARVLNDGEAIQVRGHPIETRSGNTVYGDIRAEPIYEPSVASSARTTENIIGAQVMVRDAS	not soluble
MGSDKIHHHHHHMLPQGVKDQKYDQNENIPVSWNCEESDQNHNKQKRNGSPAEGKAQKGGKETQNVLEDVVPEDAEKGKNIDHSTTPMTITLSGTSRVTFSRKYSSSRPATVPMNRYSLKATFHFSLSKYTFQPVTSMSSITESLGTRSPLTTPTTDSRSFSTLTFSTKSSENTLITFEIGPFSTTIPRNLFSSGSRTMAPSSASPRM	not soluble
MSLHIIILSPVMPIWDRGVFCSSFTKLCLARGFHITLLDTLSLFPSHSAFCNNSTVEILPFITEKLKKYFKEPSVLVGFSMAGMLVQILAARLPNVQAVLAVNAPGYPDKPLKRQIGCILTFLKNKDLSGALEILNSFMCPRGGREKRVLWEIPDEQKSVAIERMTRGFTFLLGGDARDEIIKYTGKFLALIGEKSQLATLANQTKSQCLNHEYQVISGAGTRLWDDNPAMTNAIVHKWIDAL	not soluble
MAHHHHHHMWINKIGNKSASFINHKHFHPGNIKNLERVWLAEENEKKRKEEEEKYLKKREEQYKLYELKKQLRKNEEENKNDVHNILYDINNELKKENSFKKKILHNSISNETTPNENIVNKILIRSKYDEDIFLKNHRSIYGSYYDKEKNKWGFKCCTNIDKNSKCTNNTNCSYNLNNNLIKKDLTKSKNKKKKKKKLIVDNSITAVLNKI	not soluble
